Results taken from US20210338656A1, “IMMUNOSTIMULATORY AGENTS IN COMBINATION WITH ANGIOGENESIS INHIBITORS” (Alkermes Pharma Ireland Limited, priority 2020, published 2021).

Key:
[1] = system: conventional CD4+ T cells, CD4+ Tregs, CD8+ T cells, macrophages, dendritic cells in tumors and spleens; test: Flow cytometry of tumors and spleens of MC38 tumor-bearing mice, Day 10; format: in vivo, mouse
Procedure: On Day 10 spleens and tumors were collected and weighed from all animals in Groups 7 through 12 and weighed prior to processing. Tissues from four animals in each group were processed to single cell suspensions for flow cytometry analysis at CRL-NC (described below). Tissues from the remaining six animals in each group were preserved in RNAlater, stored at −80° C.
Mouse spleen samples were dissociated by gently grinding the tissue across fine mesh with RPMI-1640 media and lysing red blood cells with ACK (ammonium chloride potassium) buffer according to the manufacturer's instructions. Samples were centrifuged and washed twice with PBS.
Mouse tumor samples were dissociated according to the manufacturer's instructions using the gentleMACS™ “Tumor Dissociation Kit” protocol. Tumor samples were filtered through a 70 μm cell strainer and rinsed twice in PBS/2.5% FBS buffer to remove enzymatic buffer. Total tumor sample and plated well volumes were measured and recorded.
Total tissue volumes and Cellometer counts from each sample were recorded. Final single cell suspensions were prepared in PBS pH 7.4 at 2×10^7 cells/mL and held briefly on ice prior to flow cytometry analysis, including conventional CD4^+ T cells, CD4^+ Tregs, CD8^+ T cells, macrophages, and dendritic cells (as % CD45^+ and as cells/mg tissue).
Single cell suspensions were added into 96-well plates and stained for 30 minutes at 4° C. with 100 μL of the reconstituted Live/Dead Aqua (Life Technologies) following manufacturer's instructions. After two washes with 150 μL of Staining Buffer, Fc receptors were blocked using TruStain Fc (Biolegend) in 100 μL volume for five to ten minutes on ice prior to immunostaining. Cells were stained for 30 minutes at 37° C. with antibody panels as described in the protocol. Cells were washed twice with 150 μL of Staining Buffer and resuspended in […] Staining Buffer for analysis. For staining of internal markers such as FoxP3, cells were permeabilized with 200 μL of Transcription Factor Fixation/Permeabilization buffer (eBioscience) for 15 minutes at 4° C. according to manufacturer's instructions. After two washes with 150 μL of Permeabilization Buffer (eBioscience), internal marker staining was carried out using 0.1 μg of each antibody diluted in 100 μL of Permeabilization Buffer for 30 minutes at 4° C. protected from the light. Cells were washed twice with 150 μL of Permeabilization Buffer and resuspended in 100 μL of Staining Buffer. 100 μL of Staining Buffer containing Countbright beads were added to each sample. Isotype-control antibodies were used as negative staining controls when deemed necessary.
All data were collected on a FortessaLSR (BD) and analyzed with FlowJo software (version 10.0.7r2, Tree Star, Inc.). Cell populations were defined as described in the protocol, and the gating strategy was determined by initial gating on singlets (FSC-H vs. FSCA) and then live cells, based on Live/Dead Aqua viability staining.

[2] = Tolerability in vivo in mice relative to rhIL-2; set-up: species or system mouse; conditions: doses that elicit equivalent or greater expansion of effector cells relative to Tregs

In the case of CNC(=O)c1cccc2cc(Oc3ccnc4cc(OCC5(N)CC5)c(OC)cc34)ccc12 [Lucitanib, 6-(7-((1-Aminocyclopropyl)-methoxy)-6-methoxyquinolin-4-yloxy)-N-methyl-1-naphthamide], the “macrophages in spleens and tumors” value [1] is reported as “decrease” and the “conventional CD4+ T cells in spleen” value ([1]; compared to vehicle) is reported as “increase”.

B1: SEQ ID NO: 2: mouse ortholog construct (murine surrogate) of the circularly permuted IL-2/IL-2Rα fusion protein of SEQ ID NO: 1 (protein)
chain: SKSFQLEDAENFISNIRVTVVKLKGSDNTFECQFDDESATVVDFLRRWIAFCQSIISTSPQGGSSSTQQQQQHLEQLLMDLQELLSRMENYRNLKLPRMLTFKFYLPKQATELKDLQCLEDELGPLRHVLDLTQGSGGGSELCLYDPPEVPNATFKALSYKNGTILNCECKRGFRRLKELVYMRCLGNSWSSNCQCTSNSHDKSRKQVTAQLEHQKEQQTTTDMQKPTQSMHQENLTGHCREPPPWKHEDSKRIYHFVEGQSVHYECIPGYKALQRGPAISICKMKCGKTGWTQPQLTCVDGSHHHHHH
modifications: Mouse cpIL-2IL-2R-alpha
With B1 the “CD4+ Tregs in spleens” value [1] was “decrease”, the “CD8+ T cells in spleens and tumors” value [1] was “increase” and the “Foxp3+ regulatory T cells (Tregs)” value [1] was “without an increase”. For the same molecule, the “dendritic cells in spleens and tumors” value [1] was “increase”, the “macrophages in spleens and tumors” value [1] was “decrease” and the “conventional CD4+ T cells in spleen” value ([1]; compared to vehicle) was “decreased”. For the same molecule, the “numbers of conventional CD4+ T cells in tumors” value ([1]; compared to vehicle) was “neither treatment with SEQ ID NO: 2 nor the combination with lucitanib changed the numbers”, the “peripheral CD8+ T cell expansion” value ([1]; compared to vehicle) was “significant peripheral CD8^+ T cell expansion” and the “tolerability relative to recombinant human IL-2 (rhIL-2)” value [2] was “improved tolerability”.
